This is an account of results in patent US20250122301A1 (IBIO, published 2025).

The labels stand for the following.
B1: AH05259 (human IgG1 reformatted) (antibody, V domains shown)
VH: QVQLQQSGAELVRPGVSVKISCKGSGYTFTDYAMHWVKQSHAKSLEWIGVISTYSGDVSYNQKFKGKATMTVDKSSSTAYMELARLTSEDSAIYYCARGVTFDSWGQGTSLTVSS
VL: DIQMTQTPASLSASVGETVTITCRASENIYSFLEWFQQKQGKSPQLLVYNAKTLAEGVPSRFSVSGSGTQFSLKINSLQPEDFGSYYCQHHYGIPYTFGGGTKLEIK
B2: D36 (human IgG1 reformatted) (antibody, V domains shown)
VH: QVQLQQPGAELVRPGVSLKISCKGSGYTFTDYAMHWVRQSHAKSLEWIGVISTYSGDALYNQKFKGKATMTVDKSSSTAYLELARLTSEDSAIYYCARGVTFDYWGQGTTLTVSS
VL: DVVMTQSPASLSASVGETVTITCRASENSYSYLEWYQQKQGKSPQLLVYNAKTLAEGVPSRFSGSGSGTQFSLKINSLQPEDFGTYYCQHHYGTPYTFGGGTKLEMK
B3: AH05256 (human IgG1 reformatted) (antibody, V domains shown)
VH: QVQLQQPGAELAKPGASVKMSCKASGYTFTRYWIHWVKQRPGQDLEWIGYINPRTDYTEYNQKFKDKATLTADKSSSTAYMQLSSLTSDDSAVYYCARHGYFDYWGQGTTLTVSS
VL: DIQMTQTTSSLSASLGDRVTISCRASQDISNYLNWYQQKPDGTVKLLIYHTSRLQSGVPSRFTGSGSGTDYSLTISNLEQEDIATYFCQQSNSLPPTFGGGTKLEIK
B4: D5 (human IgG1 reformatted) (antibody, V domains shown)
VH: QVQLQQSGAELVRPGTSVKISCKASGYTFTNYWLGWVKQRPGHGLEWIGDIYPGGGYTNYNEKFKGKATLTADTSSSTAYMQLSSLTSEDSAVYFCARVTPASWGQGTSLTVSS
VL: DIVMTQSQKFMSTSVGDRVSVTCKASQNVGTNVAWYQQKPGQSPKALIYSASYRYSGVPDRFTGSGSGTDFTLTISNVQSEDLAEYFCQQYNSYPYTFGGGTKLEMK
B5: D17 (human IgG1 reformatted) (antibody, V domains shown)
VH: QIQLQQSGAELVRPGTSVKISCKASGYTFTNYWLGWVKQRPGHGLEWIGDIYPGGGYTNYNEKFKGKATLTADTSSSTAYMQLSSLTSEDSAVYFCARVTPASWGQGTTLTVSA
VL: DILLTQSQKFMSTSVGDRVSVTCKASQNVGTNVAWYQQKPGQSPKALIYSASYRYSGVPDRFTGSGSGTDFTLTISNVQSEDLAEYFCQQYNSYPLTFGGGTKLEIK
B6: AH05274 (human IgG1 reformatted) (antibody, V domains shown)
VH: QVQLQQSGAELVRPGTSVKISCKASGYTFTNYWLGWIKQRPGHGLEWIGDIYPGGGYTNYNEKFKGKATLTADTSSSTAYMQLSSLTSEDSAVYFCARVTPASWGQGTSLTVSS
VL: DIQMTQSQKFMSTSVGDRVSVTCKASQNVGTNVAWYQQKPGQSPKALIYSASYRYSGVPDRFTGSGSGTDFTLTISNVQSEDLAEYFCQQYNSYPYTFGGGTKLEIK
B7: BP003-T2P1C4 (human IgG1 reformatted) (antibody, V domains shown)
VH: QVQLQQSGAELVRPGTSVKISCKASGYTFTNYWLGWVKQRPGHGLEWIGDIYPGGGYTNYNEKFKGKATLTADTSSSTAYMQLSSLTSEDSAVYFCARVTPASWGQGTTVTVSS
VL: DIQMTQSQKFMSASVGDRVSVTCKASQNVGTNVAWYQQKPGQSPKALIYSASYRYSGVPDRFTGSGSGTDFTLTISNVQSEDLAEYFCQQYNSYPYTFGGGTKLEMK
B8: BP003-T2P1D10 (human IgG1 reformatted) (antibody, V domains shown)
VH: QIQLQQPGAELVRPGTSVKISCKASGYTFTNYWLGWVKQRPGHGLEWIGDIYPGGGYTNYNEKFKGKATLTADTSSSTAYMQLSSLTSEDSAVYFCARVTPASWGQGTSLTVSS
VL: DIVITQSQKFMSTSVGDRVSVTCKASQNVGTNVAWYQQKPGQSPKALIYSASYRYSGVPDRLTGSGSGTDFTLTISNVQSEDLAEYFCQQYNRYPYTFGGGTKLEIK

For the assay, the target named is T1, CD25 on CD25+ cells (SUDHL-1, HEK IL-2 reporter cells, primary human regulatory T cells) (human, UniProt P01589 22-272).
T1 construct: whole, on cells; also called IL-2Ralpha
T1 sequence (looked up): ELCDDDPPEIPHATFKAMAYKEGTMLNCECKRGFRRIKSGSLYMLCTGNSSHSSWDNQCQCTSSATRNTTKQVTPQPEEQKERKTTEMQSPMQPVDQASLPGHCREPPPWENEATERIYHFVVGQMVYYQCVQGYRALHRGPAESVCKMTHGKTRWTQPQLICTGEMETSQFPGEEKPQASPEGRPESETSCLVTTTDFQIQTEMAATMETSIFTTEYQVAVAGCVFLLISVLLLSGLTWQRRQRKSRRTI
In words: flow cytometry, dose response on CD25+ SUDHL-1 cells.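 Further: antibody binding to cells read as median fluorescence intensity of an AF647 anti-human Fc secondary, DAPI+ dead cells excluded, 20 min on ice, 5-fold dilutions from 10 ug/mL.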
B1 returned a concentration for a half-maximal effect (EC50) of 0.121 µg/mL.
With B2 the figure was 1.49 µg/mL; with B3, 0.0715 µg/mL.
For the molecule B4, a half-maximal effect (EC50) was put at 0.603 µg/mL.
The molecule B5 displayed an EC50 of 0.0957 µg/mL.
Turning to B6, it took 0.228 µg/mL to reach a half-maximal effect (EC50).
Take B7: a half-maximal effect (EC50) was put at 0.294 µg/mL.
As for B8, the figure is 0.165 µg/mL.

A word on the EC50: it is the concentration giving half of the maximal effect. A lower EC50 goes with higher potency in that assay.
